Assay: soluble on expression in E. coli; label from the status in PepcDB or PDB records

Sequence | soluble on expression in E. coli
MPAKIPITDNHMHIDPRARGLEAVKEFKNSGGTHIILVTKPSWSLGIAVKKPEDYLAVFDETVEIASKIREIGVGAFPVLGVHPAEISKITEYMDLSEAVETMKKGLELAAGYVERGLAVGIKSGRPHYPVPSDVWEASNEIMEHAFSLGKEQDCAVQLHTESVQEPELKDIAERARKTGIKMYRVVKHYSPPLVKTCEELGIFPGVISVKGAIEKAIEEGTRFMMETDYIDDPDRPGAVLGPKTIPKRTIKLMETYGEEPFWTIHKENPEKVYDIEIEL | not soluble
MPVVIIVEHPRFISSAGPAVKGDTGQIMKYEKTKEFPHTKKFKAICYGAMMHPKRACKLTEQPTMTKQKRKNTFLTAYYRAKEICMIYSHIFINKLPKQKLTFKQFYVKK | not soluble
MSLSEQHIDPTRLRMDELVVALTDRETELAAAEGRIRELEREVSELRRSLNSPSQEAELERLRLLAGTTAVTGPGVVVTLSETPEAVTAKNRVADEDIWRVVNELYTAGAEAIAVGGVRLTSVSGIRNVGERILVGETMIASPVEIHAIGDPAVLDASLKLRGGVIDLLARWGIKVTVVKSDSLTLPPLKTQPAFRYAKPAESAGSEGHHHHHH | soluble
MGHHHHHHSHMAFILCPLTCPGECEGSTGKLECCLCLPSQWAVLTAAPHPYRWSQEAGRVGEGKIGKTGRPRPRQNSLSSLHFWSPVVMCL | not soluble
QGRYTTDDGYIFNASDIIEDTGDAYIVPHGDHYHYIPKNELSASELAAAEAFLSG | soluble
MGEQPIFSTRAHVFQIDPNTKKNWVPTSKHAVTVSYFYDSTRNVYRIISLDGSKAIINSTITPNMTFTKTSQKFGQWADSRANTVYGLGFSSEHHLSKFAEKFQEFKEAAR | soluble
MKLLVATTNEGKYREIKEILSEYGIEVLKPEEKLEVEETGCTFLENAYLKARAYYERYKIPALADDSGLIVEAISPYPGVYSSRFYDIDFGGREEVRTNKDEANIRKLLRLLENTENRKAKFVAFIVVYGGSWGIFAEGEVRGEITKEPRGDRGFGYDPVFVPEGYNKTMAELSPEEKNKISHRGRALRKLVHVLKNCEKAF | soluble
MGSDKIHHHHHHMDTIAESIQKKAYELGYEKCGIIPINLIDEYADKFNERMEKIPKSKMFYKSQERLIKPKEIYPWAKSVVVLTSVYGKYKVPQELNGHIAKAYLFDTRVDKNTKEYQNNRALEEYMQELGLKVETNQKFGVVGMRWAALQAGVGIIRRNNFLYTESGSWVHLEAWVTDRKMELKETNNVKKCPKSCNRCIMSCPTKSLSEPYTMSPTECVSFLTTFGGRNLPEEPLRKKFGDCIYGCDICQDACPMNKGKWKDEEEFPGLAELAPSLTPENILNMDEDFYREKVQPKFFYLSPEDLWKWKIDALCYIGNNYSESYKPLLVNACNNANNKISEMANLICSELSLQ | not soluble
PNKFCPGCGHGIVNRIIAEVIEEHGYEKNHVLTLGVGCVCNMNFSWNGDKMQTAHGRASSTAIGVKVALPDTLVMTYQGDGDAYVIGLSETLNTAYRNHNVTVFVINNNNFAMTGGQMSWTTMPGQVTTTSVNGRDIKTTGSPLKVPEMVANFFDVAYVARGSVHSPKEIINLKKYIKNAIEAQLNGEGYSLVEILAPCPTNWGVSLEKSIKWMEEEIVPYYALGEFKQRDG | not soluble
MLNTHSCIFHRGVNGSEPLLPVVNGVNICGNPRIISCCLLPLVNPCKPMSTGFDFVAIKKSRTFTAIEIRHKNMRKMAEQQIRCAKC | not soluble
TGAGTPSQGKKNTTTHTKCRRCGEKSYHTKKKVCSSCGFGKSAKRRDYEWQSKAGE | soluble
MAGLLKESMRIKMYMEGTVNGHYFKCEGEGDGNPFAGTQSMRIHVTEGAPLPFAFDILAPCCESRTFVHHTAEIPDFFKQSFPEGFTWERTTTYEDGGILTAHQDTSLEGNCLIYKVKVHGTNFPADGPVMKNKSGGWEPSTEVVYPENGVLCGRNVMALKVGDRHLICHHYTSYRSKKAVRALTMPGFHFTDIRLQMLRKKKDEYFELYEASVARYSDLPEKAN | soluble
MGSDKIHHHHHHMLRYHMQGFSGYGVQYSPFFDNRLAVAAGSNFGLVGNGKLFILEIDRSGRIVEVNSFLTQDCLFDLAWNESHENQVLVAQGDGTLRLFDTTFKEFPIAIFKEHEREVFSCNWNLVNRQNFLSSSWDGSIKIWSPLRKQSLMTLTPRPLEITKMVDPLNAIILKKKSFTGISKNRNCVYQAQFSPHDQNLVLSCSGNSYASLFDIRLPSGKNQNNFLVHSGLEALTCDFNKYRPYVVATGGVDNAIRIWDIRMLNKNESATIKRTVPGQLHNSSCINEIPNAHGLAIRKVTWSPHHSNILMSASYDMTCRIWRDLSNDGAKETYKTNSTDATKGSIFNFTQHSEFVFGADWSLWGKPGYVASTAWDGNLFVWNGLG | not soluble
AIAAEMKTYSHRTMPSACTLVMCSSVESGLPGRDGRDGREGPRGEKGDPGLPGAAGQAGMPGQAGPVGPKGDNGSVGEPGPKGDTGPS | soluble
MDSKKILYISQEIFPYLPETDISVVSRKLPQTIQERGNEVRIFMPRYGIINERRNQLHEVIRLSGINMIINDNDHPLIIKVASIQSARMQVYFIDNDDFFKRKTMYDIKPKQENDNDERAIFFVRGALEAIKKLRWIPDVIHCHGWFTALAALYLKKMYADDPCLQKAKVVYSVYDDAGQGVIPETLFGKLGFDKITPDDLSVMEQSSDYLALNRLAIRYADGVIQGSETIAPELTDYISSLEGKAFLPYQGKEDYEEAFDNFYSDLLTANLEHHHHHH | not soluble
MKKVVAVVKLQLPAGKATPAPPVGPALGQHGANIMEFVKAFNAATANMGDAIVPVEITIYADRSFTFVTKTPPASYLIRKAAGLEKGAHKPGREKVGRITWEQVLEIAKQKMPDLNTTDLEAAARMIAGSARSMGVEVVGAPEVKDA | soluble
MGSDKIHHHHHHMTTKDISRPVCILGLGLIGGSLLRDLHAANHSVFGYNRSRSGAKSAVDEGFDVSADLEATLQRAAAEDALIVLAVPMTAIDSLLDAVHTHAPNNGFTDVVSVKTAVYDAVKARNMQHRYVGSHPMAGTANSGWSASMDGLFKRAVWVVTFDQLFDGTDINSTWISIWKDVVQMALAVGAEVVPSRVGPHDAAAARVSHLTHILAETLAIVGDNGGALSLSLAAGSYRDSTRVAGTDPGLVRAMCESNAGPLVKALDEALAILHEAREGLTAEQPNIEQLADNGYRSRIRYEARSGQRRAKESVSPTITSSRPVLRLHPGTPNWEKQLIHAETLGARIEVF | not soluble
MGSDKIHHHHHHMALYKTESGEIHLVRDICPHRGVPLTKGWVDGEEIVCPYHGLRYNTEGKCTQIPAQPELTKISDRFSLTKFPVVQRYGLIWTSIHGRDVTQANIPVLDTWDDAEHQAILPPFVDIGGSSGRQLEGFIDVAHFAWVHHNAFANRDNPIVPKYHTERTNYGLKTVYISNVSNYPHELKHLEPEGFLWKRTFEVYPPFSAVLTVDFPEGGILKILNACCPISSNKTRLFVPLTRNFDQTGDLEKVYAFNAQIFAEDQDMVESQKPEELPLDLMMEAHFEADRSSTTYRRILAEWGLSKRYTV | not soluble
MGSDKIHHHHHHMKLICEKELCTGCGLCAARCPKHSISLVAEELGHLYPSVDQKKCIDCGLCQKACPSLHDTVCLYPSVAYAAWSKDEEDYRSSTSGGMASVLTHYFLANVGIVYGCTVIPGIEIKHIRIDNLKDAYKLKGSKYVQSSIVDVLSQIRQDVKDGTNVLFIGTPCQVTAVKRMYEEQPDNLFLVDLICHGVPSNKWLVDYIANTLKIKADKVSSIGFRLFEAFSLCVYNDDRLIYKSGDLWTHRYEDLYYNTFIDGFTYRDSCFNCHYAKPERVSDITIGDFWGLGNETDDNYIPKHPYGISCVLPLTEKGKRLISIVKDKLNIYERPVTEAINGNDQLRFPKKKNLRIKFFRRIHKYIGVDAAYKLCVCDKIVKYKIRKIIR | not soluble
SATTIGPNTCSIDDYKPYCCQSMSGSASLGCVVGVIGSQCGASVKCCKDDVTNTGNSFLIINAANCVA | soluble
AHHHHHHGSENPYEIVGVVAREILDSRGNPTVEVDVYTHVGMGRAAVPSGASTGTHEALELRDGGKRYHGKGVRRAVENVNKIIAPELIGMDVRWQREIDALLLELDGTENKSNVGANAILAVSLAVAKAAANSLELPLYQYLGGVNAYVLPVPLSNVINGGVHAGNDLDFQEFMIMPIGADSFREAIRWVSETYHVLKKVIMEKYGKNAVNVGDEGGFAPPMKEVTEPLDVLIKAIEEAGYKPGDEIALALDVASSELFNEETGKYVVGGKEYDRGELLELYKDLTSTYPIVSIEDPFHEEDWEGFVMITKELGHKVQIVGDDLFVTNPKRLRKGIELGAANALLLKVNQIGTLSEAMDAAFTAFRAGYGVIVSHRSGETEDATIADLAVALNAGQIKTGAPARSDRNAKYNQLIRIEEELEGVAVYAGKRFRKVFF | soluble
MFGVTLWEMFSGGEEPWAGVPPYLILQRLEDRARLPRPPLCSRALYSLALRCWAPHPADRPSFSHLEGLLQEAGPSEACCVRDVTEPGALRMETGDPITVIEGSPDSTIWKGQNGRTFKVGSFPASAVTLADAGGLPATRPVHRGTPARGDQHPGSIDGDRKKANLWDAPPARGQRRNMPLERMKGISRSLESVLSLGPRPTGGGSSPPEIRQARAVPQGPPGLPPRPPLSSSSPQPSQPSRERLPWPKRKPPHNHPMGMPGARKAAALSGGLLSDPELQRKIMEVELSVHGVTHQECQTALGATGGDVVSAIRNLKVDQLFHLSSRSRADCWRILEHYQWDLSAASRYVLARP | soluble
MKRHFETTRRIVIKVGTSSLVQTSGKINLSKIDHLAFVISSLMNRGMEVILVSSGAMGFGLDILKMDKRPQEISQQQAVSSVGQVAMMSLYSQIFSHYQTHVSQILLTRDVVVFPESLQNVTNSFESLLSMGILPIVNENDAVSVDEMDHKTKFGDNDRLSAVVAKITKADLLIMLSDIDGLFDKNPNIYDDAVLRSHVSEITDDIIKSAGGAGSKFGTGGMLSKIKSAQMVFDNNGQMILMNGANPRDILKVLDGHNIGTYFAQGKLEHHHHHH | not soluble
MGSDKIHHHHHHMKHSRTAAAKRKTGVFARLADLYTRMEQEYSDKARAAGLTCAGCPDNCCTSYFQHHTHVEWLYLWRGMNRLPEARRAAYLARAKDVVEQSRDLLARGIRPRLMCPVNDDGLCGIYEHRLMICRMHGTRNVLALPDGGLRSFSGCFRFVECTAGQQAEAVPTVDRTPYYRELAALEMEHVGPRLKKLPRVDLTLAEMLFYGPPKL | not soluble
DKFNQFINRVLSHEGGYANHPKDPGGETNWGITKRTAQANGYNGSMRAMTREQAISIYRKAFWERYRADQMPEAVAFQFFDACVNHGYGNAARMLQRAAGVPDDGVIGAVSLKAINSLPENDLLLRFNAERLVFYTKLGTFTSFGKGWVRRVAQN | not soluble

From the DeepSol protein solubility set
